Measured values reported in patent US20160326219A1, “OPTICALLY ACTIVATED RECEPTORS” (IST AUSTRIA (INSTITUTE OF SCIENCE AND TECHNOLOGY AUSTRIA), priority 2013, published 2016).
Like-named read-outs stand apart in the source and are kept apart here.

Key:
MAPK pathway = experiment: Stimulation and detection of MAPK signaling, PathDetect Elk1 luciferase reporter (HEK293 cells); format: cell-based, human; details: for MAPK pathway activation in response to red light: HEK293 cells, PCB incubation, ~0.05 μW/mm^2; for MAPK pathway activation in response to blue light: HEK293 cells expressing the fusion protein (LOV domain fused to RTK intracellular domain), ~3 μW/mm^2
Experimental: For light stimulation of cells, an incubator (PT2499, ExoTerra/HAGEN, Holm, Germany) was equipped with 300 light emitting diodes (JS-FS505ORGB-W30 with JS-CON-004 controller, Komerci, Ebern, Germany; λmax˜630 nm (red), λmax˜530 nm (green), λmax˜470 nm (blue), bandwidth ˜±5 nm). Light intensity was controlled with an analog dimmer and measured with a digital power meter (PM120VA, Thorlabs, Munich, Germany). Intensities at maximal output were 2.3 (red), 2.6 (green) and 3.3 (blue light) W/m^2. For stimulation over extended time periods (>8 h), an aluminium box was equipped with the same light-emitting diodes and controller and placed in an incubator with standard tissue culture conditions (see below).
HEK293 cells and CHO-K1 (American Type Culture Collection (ATCC), Manassas, Va.) cells were maintained in DMEM supplemented with 10% FBS, 100 U/ml penicilin and 0.1 mg/ml streptomycin in a humidified incubator with 5% CO2 atmosphere. After trypsination, 5×10^4 cells were seeded in each well of 96-well plates (three to four wells for each construct) coated with poly-L-ornithine (Sigma, Vienna, Austria). Either transparent plates or black clear bottom plates were used. Cells were transfected using Lipofectamine 2000 (Invitrogen/LifeTech).
Phycocyanobilin (PCB; Livchem Logistics GmbH, Frankfurt a.M., Germany) was dissolved in a dark room to a stock concentration of 10 mM in DMSO. Aliquots were stored in the dark at −20° C. Prior to experiments, cells were incubated with 50 μM PCB overnight in reduced serum starve medium at 37° C. PCB could also be applied to applied to living animals as it is non-toxic even in high doses (0.17% of diet or 10 mg/kg) (McCarty (2007).
Activation of the MAPK pathway was assayed with the PathDetect Elk1 trans-Reporting System (Agilent) consisting of an Elk1 phosphorylation-dependent trans-activator and a luciferase-based trans-reporter. Cells were transfected with 213.3 ng total DNA per well (receptor, trans-activator and trans-reporter at ratio of 1:3:60 or 1:30:600) using Lipofectamine 2000. Six h after transfection medium was replaced with CO2-independent reduced serum starve medium (Gibco/Life Technologies; supplemented with 0.5% FBS, 2 mM L-Glutamine, 100 U/ml penicilin and 0.1 mg/ml streptomycin) for 18 h at 37° C. Cells were transferred and were either kept under constant illumination for 8 h or were protected from light. Chemical stimulation of imFGFR1 followed the same procedure, except that 10 nM AP20187 ((Clackson 1998); ARIAD Pharmaceuticals, Cambridge, Mass.) were added before transfer to the stimulation incubator. After incubation, plates were washed once with PBS and luciferase was detected with standard, off-the-shelf reagents. These were either Luciferase 1000 Assay System (Promega, Mannheim, Germany) in combination with a microplate reader equipped with an injector (Tecan Infinite 200 Pro, Maennedorf, Switzerland), or ONE-Glo Assay System (Promega) in combination with a microplate reader not equipped with an injector (BioTek Synergy H1). These assay systems provide equivalent results.

LOV domains = details: cited from earlier work

## rtrkB-SyCP1-PHY: chimeric receptor of rat trkB catalytic domain and SyCP1-PHY, SEQ ID NO: 67
MAPK pathway
  MAPK pathway activation in response to red light: activate the canonical MAPK pathway

## imFGFR1: chemically-inducible mFGFR1 lacking ligand-binding modules, with a single FKBP domain, SEQ ID NO: 56 [reference compound]
MAPK pathway
  MAPK pathway activation in response to blue light: no effect

B1: NcVV-LOV: LOV domain of N. crassa vivid, residue 37 to 186 with Y50W mutation of Q9C3Y6, SEQ ID NO: 8 (protein, listed as Neurospora crassa)
chain: HTLYAPGGYDIMGWLIQIMNRPNPQVELGPVDTSCALILCDLKQKDTPIVYASEAFLYMTGYSNAEVLGRNCRFLQSPDGMVKPKSTRKYVDSNTINTMRKAIDRNAEVQVEVVNFKKNGQRFVNFLTMIPVRDETGEYRYSMGFQCETE
LOV domains; dark state, read-out: Estimated KD, Dark
  Kd: < 5000 nM
LOV domains; light state, read-out: Estimated KD, Light
  Kd: < 500 nM

B2: OdPA1-LOV: LOV domain of O. danica aureochrome1-like protein, residue 180 to 312 of C5NSW6, SEQ ID NO: 14 (protein, listed as Ochromonas danica)
chain: PDYSLVKALQTAQQNFVISDPSIPDNPIVYASQGFLTLTGYALSEVLGRNCRFLQGPETDPKAVEKVRKGLERGEDTTVVLLNYRKDGSTFWNQLFIAALRDGEGNVVNYLGVQCKVSEDYAKAFLKNEENEK
MAPK pathway
  MAPK pathway activation in response to blue light: blue light-induced activation of MAPK signaling with amplitudes similar to that of the original Opto-mFGFR1
  Blue light intensity at which activation is already achieved: 0.25 mW/cm^2

B3: NgPA1-LOV: LOV domain of N. gaditana hypothetical protein NGA_0015702, residue 87 to 228 of K8Z861, SEQ ID NO: 12 (protein, listed as Nannochloropsis gaditana)
chain: PDYTLVKALQTAQQNFVITDPTLPDNPIVYASGGFLSLTGYQMDQILGRNCRFLQGPDTDPAAVDKIRRAIEDGTDGSVCLLNYRADGSTFWNQFFIAALRGADGNIVNYVGVQCKVSEEYASEVLKKEATSSTVAEASSKR
MAPK pathway
  MAPK pathway activation in response to blue light: blue light-induced activation of MAPK signaling with amplitudes similar to that of the original Opto-mFGFR1
  Blue light intensity at which activation is already achieved: 0.25 mW/cm^2

B4: Opto-mFGFR1-R195E: Opto-mFGFR1 with charge inversion mutation R195E that prevents kinase domain dimer formation (protein)
chain: MGSSKSKPKDPSQRLDMKSGTKKSDFHSQMAVHKLAKSIPLRRQVTVSADSSASMNSGVLLVRPSRLSSSGTPMLAGVSEYELPEDPRWELPRDRLVLGKPLGEGCFGQVVLAEAIGLDKDKPNRVTKVAVKMLKSDATEKDLSDLISEMEMMKMIGKHKNIINLLGACTQDGPLYVIVEYASKGNLREYLQAREPPGLEYCYNPSHNPEEQLSSKDLVSCAYQVARGMEYLASKKCIHRDLAARNVLVTEDNVMKIADFGLARDIHHIDYYKKTTNGRLPVKWMAPEALFDRIYTHQSDVWSFGVLLWEIFTLGGSPYPGVPVEELFKLLKEGHRMDKPSNCTNELYMMMRDCWHAVPSQRPTFKQLVEDLDRIVALTSNQEYLDLSIPLDQYSPSFPDTRSSTCSSGEDSVFSHEPLPEEPCLPRHPTQLANSGLKRRVETGPDYSLVKALQMAQQNFVITDASLPDNPIVYASRGFLTLTGYSLDQILGRNCRFLQGPETDPRAVDKIRNAITKGVDTSVCLLNYRQDGTTFWNLFFVAGLRDSKGNIVNYVGVQSKVSEDYAKLLVNEQNIEYKGVRTSNMLRRKTGGSGVDYPYDVPDYALD
MAPK pathway
  MAPK pathway activation in response to blue light: no MAPK pathway activation

B5: mFGFR1-SyCP1-PHY: chimeric receptor of mFGFR1 catalytic domain and SyCP1-PHY, SEQ ID NO: 66 (protein)
chain: MGSSKSKPKDPSQRLDMKSGTKKSDFHSQMAVHKLAKSIPLRRQVTVSADSSASMNSGVLLVRPSRLSSSGTPMLAGVSEYELPEDPRWELPRDRLVLGKPLGEGCFGQVVLAEAIGLDKDKPNRVTKVAVKMLKSDATEKDLSDLISEMEMMKMIGKHKNIINLLGACTQDGPLYVIVEYASKGNLREYLQARRPPGLEYCYNPSHNPEEQLSSKDLVSCAYQVARGMEYLASKKCIHRDLAARNVLVTEDNVMKIADFGLARDIHHIDYYKKTTNGRLPVKWMAPEALFDRIYTHQSDVWSFGVLLWEIFTLGGSPYPGVPVEELFKLLKEGHRMDKPSNCTNELYMMMRDCWHAVPSQRPTFKQLVEDLDRIVALTSNQEYLDLSIPLDQYSPSFPDTRSSTCSSGEDSVFSHEPLPEEPCLPRHPTQLANSGLKRRVETGATTVQLSDQSLRQLETLAIHTAHLIQPHGLVVVLQEPDLTISQISANCTGILGRSPEDLLGRTLGEVFDSFQIDPIQSRLTAGQISSLNPSKLWARVMGDDFVIFDGVFHRNSDGLLVCELEPAYTSDNLPFLGFYHMANAALNRLRQQANLRDFYDVIVEEVRRMTGFDRVMLYRFDENNHGDVIAEDKRDDMEPYLGLHYPESDIPQPARRLFIHNPIRVIPDVYGVAVPLTPAVNPSTNRAVDLTESILRSAYHCHLTYLKNMGVGASLTISLIKDGHLWGLIACHHQTPKVIPFELRKACEFFGRVVFSNISAQEDTETFDYRVQLAEHEAVLLDKMTTAADFVEGLTNHPDRLLGLTGSQGAAICFGEKLILVGETPDEKAVQYLLQWLENREVQDVFFTSSLSQIYPDAVNFKSVASGLLAIPIARHNFLLWFRPEVLQTVNWGGDPNHAYEATQEDGKIELHPRQSFDLWKEIVRLQSLPWQSVEIQSALALKKAIVNLILRQAEETGGSGVDYPYDVPDYALD
modifications: redOpto-mFGFR1
MAPK pathway
  MAPK pathway activation in response to red light: activate the canonical MAPK pathway

B6: SyCP1-PHY: PHY domain of Synechocystis PCC6803 CPH1, residue 2 to 514 of Q55168, SEQ ID NO: 64 (protein)
chain: ATTVQLSDQSLRQLETLAIHTAHLIQPHGLVVVLQEPDLTISQISANCTGILGRSPEDLLGRTLGEVFDSFQIDPIQSRLTAGQISSLNPSKLWARVMGDDFVIFDGVFHRNSDGLLVCELEPAYTSDNLPFLGFYHMANAALNRLRQQANLRDFYDVIVEEVRRMTGFDRVMLYRFDENNHGDVIAEDKRDDMEPYLGLHYPESDIPQPARRLFIHNPIRVIPDVYGVAVPLTPAVNPSTNRAVDLTESILRSAYHCHLTYLKNMGVGASLTISLIKDGHLWGLIACHHQTPKVIPFELRKACEFFGRVVFSNISAQEDTETFDYRVQLAEHEAVLLDKMTTAADFVEGLTNHPDRLLGLTGSQGAAICFGEKLILVGETPDEKAVQYLLQWLENREVQDVFFTSSLSQIYPDAVNFKSVASGLLAIPIARHNFLLWFRPEVLQTVNWGGDPNHAYEATQEDGKIELHPRQSFDLWKEIVRLQSLPWQSVEIQSALALKKAIVNLILRQAEE
modifications: Synechocystis PCC6803
MAPK pathway; red light
  Red light intensity at which activation is already achieved: 5.8 μW/cm^2
MAPK pathway; red light, conversion of 5.8 μW/cm^2
  Red light intensity at which activation is already achieved, converted: 0.0058 mW/cm^2

B7: Opto-hRET: fusion of human RET catalytic domain and VfAU1-LOV, SEQ ID NO: 60 (protein)
chain: MGSSKSKPKDPSQRLDVTGHCYHKFAHKPPISSAEMTFRRPAQAFPVSYSSSSARRPSLDSMENQVSVDAFKILEDPKWEFPRKNLVLGKTLGEGEFGKVVKATAFHLKGRAGYTTVAVKMLKENASPSELRDLLSEFNVLKQVNHPHVIKLYGACSQDGPLLLIVEYAKYGSLRGFLRESRKVGPGYLGSGGSRNSSSLDHPDERALTMGDLISFAWQISQGMQYLAEMKLVHRDLAARNILVAEGRKMKISDFGLSRDVYEEDSYVKRSQGRIPVKWMAIESLFDHIYTTQSDVWSFGVLLWEIVTLGGNPYPGIPPERLFNLLKTGHRMERPDNCSEEMYRLMLQCWKQEPDKRPVFADISKDLEKMMVKRRDYLDLAASTPSDSLIYDDGLSEEETPLVDCNNAPLPRALPSTWIENKLYGRISHAFTRFTGGPDYSLVKALQMAQQNFVITDASLPDNPIVYASRGFLTLTGYSLDQILGRNCRFLQGPETDPRAVDKIRNAITKGVDTSVCLLNYRQDGTTFWNLFFVAGLRDSKGNIVNYVGVQSKVSEDYAKLLVNEQNIEYKGVRTSNMLRRKPGGSGVDYPYDVPDYALD
modifications: hRET-VfAU1-LOV
MAPK pathway
  MAPK pathway activation in response to blue light: robust activation
